The results in this text go back to article doi:10.1101/2020.08.05.237479.

This test has as its target MBP-NES^MVM. As to the kind of experiment: MST.

As to “yCRM1a C152S/C539T (from UniProt P30822 1-1055) (receptor)”, the fold weaker affinity than the C152/C539/C1022 triple mutant worked out at 5 fold.
